Data taken from patent US20240376214A1, “ANTI-C-MET ANTIBODIES AND ANTIBODY-DRUG CONJUGATES” (BYONDIS B.V., priority 2021, published 2024).

Biological target: human c-Met (HGFR), full length, on the cell surface (human, UniProt P08581 25-1390)
Test: cell-based or functional assay

Sequence of human c-Met (HGFR), full length, on the cell surface (P08581 25-1390 limits assumed): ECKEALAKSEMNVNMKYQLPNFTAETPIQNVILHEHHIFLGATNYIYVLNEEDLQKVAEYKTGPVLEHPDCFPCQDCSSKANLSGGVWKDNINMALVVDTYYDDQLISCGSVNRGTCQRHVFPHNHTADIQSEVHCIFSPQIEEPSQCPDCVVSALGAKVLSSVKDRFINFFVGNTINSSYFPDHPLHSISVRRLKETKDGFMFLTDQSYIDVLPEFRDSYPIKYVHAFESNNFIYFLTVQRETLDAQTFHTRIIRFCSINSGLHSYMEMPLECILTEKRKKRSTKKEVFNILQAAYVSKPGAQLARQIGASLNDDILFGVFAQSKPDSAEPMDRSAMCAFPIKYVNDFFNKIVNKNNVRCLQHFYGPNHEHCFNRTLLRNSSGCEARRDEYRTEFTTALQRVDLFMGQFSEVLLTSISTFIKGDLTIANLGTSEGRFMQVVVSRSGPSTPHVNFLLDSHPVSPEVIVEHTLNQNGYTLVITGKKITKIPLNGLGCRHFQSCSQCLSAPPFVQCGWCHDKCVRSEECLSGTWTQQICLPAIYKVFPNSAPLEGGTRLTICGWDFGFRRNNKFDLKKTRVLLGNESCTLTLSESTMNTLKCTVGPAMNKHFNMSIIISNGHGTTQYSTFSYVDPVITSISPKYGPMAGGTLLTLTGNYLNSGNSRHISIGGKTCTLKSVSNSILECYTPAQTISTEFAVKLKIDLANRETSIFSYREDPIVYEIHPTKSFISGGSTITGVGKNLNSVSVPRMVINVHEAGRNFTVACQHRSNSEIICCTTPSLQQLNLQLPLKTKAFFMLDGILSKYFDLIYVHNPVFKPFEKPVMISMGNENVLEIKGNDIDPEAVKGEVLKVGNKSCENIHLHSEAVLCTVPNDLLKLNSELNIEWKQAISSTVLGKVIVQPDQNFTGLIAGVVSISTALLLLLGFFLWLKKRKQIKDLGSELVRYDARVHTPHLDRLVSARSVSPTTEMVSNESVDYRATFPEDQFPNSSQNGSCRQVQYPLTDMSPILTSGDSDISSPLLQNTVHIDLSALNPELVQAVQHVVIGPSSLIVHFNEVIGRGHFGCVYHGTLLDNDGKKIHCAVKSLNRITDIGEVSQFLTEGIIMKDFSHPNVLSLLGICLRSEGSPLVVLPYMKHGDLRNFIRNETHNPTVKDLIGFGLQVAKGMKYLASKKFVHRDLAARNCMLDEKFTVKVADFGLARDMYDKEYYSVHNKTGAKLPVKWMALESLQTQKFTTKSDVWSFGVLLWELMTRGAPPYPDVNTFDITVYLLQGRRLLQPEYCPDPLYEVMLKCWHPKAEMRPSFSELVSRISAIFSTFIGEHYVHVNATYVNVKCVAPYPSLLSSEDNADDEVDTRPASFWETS

Row | Binder | Efficacy (%), in vitro cytotoxicity, MKN-45, -HGF [%] | Efficacy (%), in vitro cytotoxicity, NCI-H596, +HGF [%] | Efficacy (%), in vitro cytotoxicity, NCI-H596, -HGF [%] | Efficacy (%), in vitro cytotoxicity, PC-3, +HGF [%] | Efficacy (%), in vitro cytotoxicity, PC-3, -HGF [%] | IC50, in vitro cytotoxicity, MKN-45, -HGF [nM] | IC50, in vitro cytotoxicity, NCI-H596, +HGF [nM] | IC50, in vitro cytotoxicity, NCI-H596, -HGF [nM] | IC50, in vitro cytotoxicity, PC-3, +HGF [nM] | IC50, in vitro cytotoxicity, PC-3, -HGF [nM] | IC50 1, in vitro cytotoxicity, PC-3, -HGF [nM] | IC50 2, in vitro cytotoxicity, PC-3, -HGF [nM]
1 | ADC1 (antibody, human IgG1, kappa, V domains shown, vc-seco-DUBA linker-drug on the engineered cysteine at HC position 41 (Kabat); DAR 1.5) VH: EVQLQQSGPELLKPGASVKMSCKASGYIFTDYFMNWVKQSCGKSLEWIGRVNPKNGDITYNQKFRGKATLTVDKSLTTAYMQLNSLTSEDSAVYFCAYDGYYDGMDFWGQGTSVTVSS VL: ENVLTQSPAIMSASPGEKVTMTCRANSSVSSNFLHWYQQKSGASPKLWISSTSNLAFGVPPRFSGSGSGTSYSLTISSVEAEDAATYYCHQYSGHPFTFGSGTKLEIKR | 72 | 29 | 16 | 42 | 41 | 0.73 | 0.38 | > 10 | 0.185 | 0.069 | – | –
2 | ADC2a (antibody, human IgG1, kappa, V domains shown, vc-seco-DUBA linker-drug on the engineered cysteine at HC position 41 (Kabat); DAR 1.7) VH: QVQLVQSGAELRKPGSSVKVSCRASGYVFPDYEMHWVRQACGQGLEWMGAFDPETGDTTYNQNFKGRVTIAADKSTSTAYMELRSLRSEDTAIYYCARDYKYLYYYAMDNWGQGTMVTVSS VL: EIVLTQSPSLLSASIGDRVTIPCTASSSITSSYLHWYQQKPGKAPKLLIYSTTNLASGVPSRFSGSGSGTEFTLTISSLQPEDFATYYCHQYRRSPLTFGGGTKLEIKR | 86 | 26 | 8 | 76 | 77 | 0.44 | > 10 | > 10 | ~0.74 | – | 0.06 | 40
3 | ADC2c (antibody, human IgG1, kappa, V domains shown, vc-seco-DUBA linker-drug on the engineered cysteine at HC position 41 (Kabat); DAR 1.7) VH: QVQLVQSGAEVKKPGSSVKVSCKASGYVFPDYEMHWVRQACGQGLEWMGAFDPETGDTTYNQNFKGRVTITADKSTSTAYMELSSLRSEDTAVYYCARDYKYLYYYAMDNWGQGTTVTVSS VL: EIVLTQSPSLLSASIGDRVTIPCTASSSITSSYLHWYQQKPGKAPKLLIYSTTNLASGVPSRFSGSGSGTEFTLTISSLQPEDFATYYCHQYRRSPLTFGGGTKLEIKR | 84 | 32 | 3 | 75 | 76 | 0.41 | > 10 | > 10 | ~1.97 | – | 0.08 | 58
4 | ADC2b (antibody, human IgG1, kappa, V domains shown, vc-seco-DUBA linker-drug on the engineered cysteine at HC position 41 (Kabat); DAR 1.7) VH: QVQLVQSGAEVKKPGSSVKVSCKASGYVFPDYEMHWVRQACGQGLEWMGAFDPETGDTTYNQNFKGRVTITADKSTSTAYMELSSLRSEDTAVYYCARDYKYLYYYAMDNWGQGTTVTVSS VL: DIQMTQSPSSLSASVGDRVTITCTASSSITSSYLHWYQQKPGKAPKLLIYSTTNLASGVPSRFSGSGSGTDFTLTISSLQPEDFATYYCHQYRRSPLTFGGGTKLEIKR | 84 | 34 | 10 | 75 | 77 | 0.4 | > 10 | > 10 | ~2.46 | – | 0.05 | 100
5 | ADC3 (antibody, human IgG1, kappa, V domains shown, vc-seco-DUBA linker-drug on the engineered cysteine at HC position 41 (Kabat); DAR 1.1) VH: QIQLQQSGPELVKPGASVKISCKASGYTFTDYYLNWVKQRCGQGLEWIGLIFPGNDKTEYSEKFKGKATLTVDTSSSTAYIQLSRLSSEDSAIYFCSGGDYGGFVYWGQGTLVTVSS VL: DIQMTQSPTSLSASVGETVTITCGASENIYGALNWYQRKQGKSPQLLIYGATNLADGMSSRFSGSGSGRQFSLKINSLHPDDVATYFCQNVLSSPLTFGSGTKLEIKR | 50 | 53 | 16 | 30 | 24 | 0.77 | 1.86 | > 10 | 0.224 | 0.076 | – | –
6 | ADC3a (antibody, human IgG1, kappa, V domains shown, vc-seco-DUBA linker-drug on the engineered cysteine at HC position 41 (Kabat); DAR 1.9) VH: QVQLVQSGAEVKKPGASVKVSCKASGYTFTDYYLNWVRQACGQGLEWMGLIFPGNDKTEYSEKFKGRVTLTTDTSISTAYMELSSLTSDDTALYYCSGGDYGGFVYWGQGTLVTVSS VL: DIQLTQSPSSLSASVGDRVTITCGASENIYGALNWYQQKPGKAPKLLIYGATNLADGVPSRFSGSGSGTDFTLTISSLQPEDFATYYCQNVLSSPLTFGPGTKVDIKR | 85 | 43 | 3 | 72 | 73 | 0.55 | 2.14 | > 10 | ~0.71 | – | 0.05 | 5.77
7 | ADC3c (antibody, human IgG1, kappa, V domains shown, vc-seco-DUBA linker-drug on the engineered cysteine at HC position 41 (Kabat); DAR 1.8) VH: QVQLVQSGAEVKKPGASVKVSCKASGYTFTDYYLNWVRQACGQGLEWMGLIFPGNDKTEYSEKFKGRVTLTTDTSISTAYMELSSLTSDDTALYYCSGGDYGGFVYWGQGTLVTVSS VL: DIQMTQSPSSLSASVGDRVTITCGASENIYGALNWYQQKPGKAPKLLIYGATNLADGVPSRFSGSGSGTDFTLTISSLQPEDVATYYCQNVLSSPLTFGSGTKLEIKR | 84 | 44 | 10 | 72 | 73 | 0.41 | 1.89 | > 10 | ~1.85 | – | 0.04 | 112
8 | ADC3e (antibody, human IgG1, kappa, V domains shown, vc-seco-DUBA linker-drug on the engineered cysteine at HC position 41 (Kabat); DAR 1.9) VH: QVQLQESGAEVKKPGASVKVSCKASGYTFTDYYLNWVRQACGQGLEWMGLIFPGNDKTEYSEKFKGRVTMTRDTSTSTVYMELSSLRSEDTAVYYCSGGDYGGFVYWGQGTLVTVSS VL: DIQMTQSPSSLSASVGDRVTITCGASENIYGALNWYQQKPGKAPKLLIYGATNLADGVPSRFSGSGSGTDFTLTISSLQPEDVATYYCQNVLSSPLTFGSGTKLEIKR | 81 | 44 | 11 | 74 | 74 | 0.46 | 2.52 | > 10 | ~2.86 | – | 0.04 | 541
9 | ADC3d (antibody, human IgG1, kappa, V domains shown, vc-seco-DUBA linker-drug on the engineered cysteine at HC position 41 (Kabat); DAR 1.8) VH: QVQLQESGAEVKKPGASVKVSCKASGYTFTDYYLNWVRQACGQGLEWMGLIFPGNDKTEYSEKFKGRVTMTRDTSTSTVYMELSSLRSEDTAVYYCSGGDYGGFVYWGQGTLVTVSS VL: DIQLTQSPSSLSASVGDRVTITCGASENIYGALNWYQQKPGKAPKLLIYGATNLADGVPSRFSGSGSGTDFTLTISSLQPEDFATYYCQNVLSSPLTFGPGTKVDIKR | 82 | 41 | 5 | 73 | 74 | 0.5 | 2.17 | > 10 | ~2.49 | – | 0.04 | 54
10 | ADC1a (antibody, human IgG1, kappa, V domains shown, vc-seco-DUBA linker-drug on the engineered cysteine at HC position 41 (Kabat); DAR 1.7) VH: QVQLVQSGAEVKKPGASVKVSCKASGYIFTDYFMNWVRQACGQGLEWMGRVNPKNGDITYNQKFRGRVSLTKDTSINTAYMELSGLTSDDTAIYYCAYDGYYDGMDFWGQGTSVTVSS VL: ELVMTQSPSSLSASVGDRVTITCRANSSVSSNFLHWYQQKPGKAPKLLISSTSNLAFGVPSRFSGTGSGTDFSLTISSLQPEDFAIYYCHQYSGHPFTFGQGTKLEIKR | 84 | 40 | 14 | 77 | 78 | 0.42 | > 10 | > 10 | ~1.22 | – | 0.6 | 224
